From article PMC13139468, “A model for drug transport across two membranes of Gram-negative bacteria by an MFS tripartite assembly” (Nature Communications, 2026) come the findings set out here.

B1: wild-type free EmrA (natural protein)
chain: MSANAETQTPQQPVKKSGKRKRLLLLLTLLFIIIAVAIGIYWFLVLRHFEETDDAYVAGNQIQIMSQVSGSVTKVWADNTDFVKEGDVLVTLDPTDARQAFEKAKTALASSVRQTHQLMINSKQLQANIEVQKIALAKAQSDYNRRVPLGNANLIGREELQHARDAVTSAQAQLDVAIQQYNANQAMILGTKLEDQPAVQQAATEVRNAWLALERTRIISPMTGYVSRRAVQPGAQISPTTPLMAVVPATNMWVDANFKETQIANMRIGQPVTITTDIYGDDVKYTGKVVGLDMGTGSAFSLLPAQNATGNWIKVVQRLPVRIELDQKQLEQYPLRIGLSTLVSVNTTNRDGQVLANKVRSTPVAVSTAREISLAPVNKLIDDIVKANAG
notes: also called free EmrA of pump-FA
B2: EmrA (EmrA part of the EmrB-EmrA fusion protein, C-terminal 6His) (natural protein)
chain: B1 chain
notes: also called EmrB-EmrA fusion protein (EmrA part); fused EmrA; not shown: His6, C-terminal, kept
B3: modified free EmrA (N-terminal residues 1-47 replaced by residues 1-27 of AcrA) (other)
chain: CDDHFEETDDAYVAGNQIQIMSQVSGSVTKVWADNTDFVKEGDVLVTLDPTDARQAFEKAKTALASSVRQTHQLMINSKQLQANIEVQKIALAKAQSDYNRRVPLGNANLIGREELQHARDAVTSAQAQLDVAIQQYNANQAMILGTKLEDQPAVQQAATEVRNAWLALERTRIISPMTGYVSRRAVQPGAQISPTTPLMAVVPATNMWVDANFKETQIANMRIGQPVTITTDIYGDDVKYTGKVVGLDMGTGSAFSLLPAQNATGNWIKVVQRLPVRIELDQKQLEQYPLRIGLSTLVSVNTTNRDGQVLANKVRSTPVAVSTAREISLAPVNKLIDDIVKANAG
modifications: C25 (AcrA numbering) modified by a palmitoyl acid chain
notes: also called acrAsignal-ΔemrA; free EmrA of pump-EA

Series [1] deals with the molecule itself. Kind of series: cryo-EM structure; EmrAB-TolC pump-FA (EmrB-EmrA fusion protein, wild-type free EmrA, TolC-FLAG), co-expressed and purified as a complex, in peptidisc, 0.1 mg/mL, graphene-covered grids; single-particle cryo-EM, 300 kV; maps at 3.59 Å and 3.66 Å.
The target of series [2] is T1, EmrB (modified EmrB, the BRIL-EmrB-ALFA part of the EmrB-EmrA fusion protein) (E. coli K-12 strain MG1655, UniProt P0AEJ0 13-498).
T1 construct: also called EmrB IM transporter; EmrB-EmrA fusion protein (EmrB part); not shown: BRIL (thermostabilized apocytochrome b562RIL), N-terminal, kept; ALFA, C-terminal, kept
T1 sequence: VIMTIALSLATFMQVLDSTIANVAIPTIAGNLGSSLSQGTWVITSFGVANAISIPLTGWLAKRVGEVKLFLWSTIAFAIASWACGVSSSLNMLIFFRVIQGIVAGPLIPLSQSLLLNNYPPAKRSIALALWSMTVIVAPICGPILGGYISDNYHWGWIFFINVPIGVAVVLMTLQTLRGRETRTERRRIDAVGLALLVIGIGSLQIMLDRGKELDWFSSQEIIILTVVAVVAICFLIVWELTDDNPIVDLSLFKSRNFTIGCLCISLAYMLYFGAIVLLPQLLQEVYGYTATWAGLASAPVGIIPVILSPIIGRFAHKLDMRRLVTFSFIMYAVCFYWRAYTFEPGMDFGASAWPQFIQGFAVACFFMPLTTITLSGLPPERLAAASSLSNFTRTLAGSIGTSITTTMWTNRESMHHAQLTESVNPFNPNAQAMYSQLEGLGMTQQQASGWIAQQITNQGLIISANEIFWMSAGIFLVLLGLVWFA
Described as above. The conditions noted are these: both partners purified.

Series [3] addresses T2, TolC (TolC-FLAG) (E. coli K-12 strain MG1655, UniProt P02930 23-493).
T2 construct: also called TolC OM channel; not shown: FLAG, C-terminal, kept
T2 sequence: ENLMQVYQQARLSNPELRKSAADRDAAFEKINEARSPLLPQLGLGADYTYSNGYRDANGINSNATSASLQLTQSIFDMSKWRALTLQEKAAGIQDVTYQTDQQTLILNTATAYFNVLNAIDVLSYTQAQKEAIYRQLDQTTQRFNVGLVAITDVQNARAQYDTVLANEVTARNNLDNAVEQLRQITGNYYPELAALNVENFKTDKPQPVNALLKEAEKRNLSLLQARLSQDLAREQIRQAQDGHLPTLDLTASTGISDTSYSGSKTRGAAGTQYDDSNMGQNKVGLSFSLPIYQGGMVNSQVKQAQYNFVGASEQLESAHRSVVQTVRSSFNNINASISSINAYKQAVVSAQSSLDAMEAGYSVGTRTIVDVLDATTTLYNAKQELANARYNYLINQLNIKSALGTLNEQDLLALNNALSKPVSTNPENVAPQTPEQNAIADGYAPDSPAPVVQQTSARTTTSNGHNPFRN
The series is described as above. The conditions noted are these: both partners purified.

Series [4] concerns the target T1, EmrB (modified EmrB, the BRIL-EmrB-ALFA …). Nature of the series: cryo-EM structure; EmrAB-TolC pump-EA (EmrB-EmrA fusion protein, modified free EmrA, TolC-FLAG), co-expressed and purified as a complex, in peptidisc, 0.7 mg/mL, holey carbon grids; single-particle cryo-EM, 300 kV; maps at 3.13 Å and 3.14 Å. The note with it: both partners purified.
Series [5] concerns the molecule itself. Described as above.
The target of series [6] is B2. The series is described as above. The note with it: both partners purified.
For series [7], the target named is T2, TolC (TolC-FLAG). The series is described as above. The conditions noted are these: both partners purified.

With B1, the stoichiometry N (usually a count of units in the complex or per binding partner) in series [1] is 6. Moreover, the binding result in series [2] and in series [3] was “binds” in each case.

For the molecule B2, the binding result in series [3] and in series [4] was “binds” each time.

As to B3, the “stoichiometry N” value in series [5] turned out to be 6. Further, the binding result in series [6], in series [4] and in series [7] was “binds” each time.
